Source: paper PMC7666136 (2020)

B1: eGFP-53BP1 (wild-type TP53-binding protein 1 tagged with enhanced green fluorescent protein) [not stated] / itself (parent complex)
chain: MDPTGSQLDSDFSQQDTPCLIIEDSQPESQVLEDDSGSHFSMLSRHLPNLQTHKENPVLDVVSNPEQTAGEERGDGNSGFNEHLKENKVADPVDSSNLDTCGSISQVIEQLPQPNRTSSVLGMSVESAPAVEEEKGEELEQKEKEKEEDTSGNTTHSLGAEDTASSQLGFGVLELSQSQDVEENTVPYEVDKEQLQSVTTNSGYTRLSDVDANTAIKHEEQSNEDIPIAEQSSKDIPVTAQPSKDVHVVKEQNPPPARSEDMPFSPKASVAAMEAKEQLSAQELMESGLQIQKSPEPEVLSTQEDLFDQSNKTVSSDGCSTPSREEGGCSLASTPATTLHLLQLSGQRSLVQDSLSTNSSDLVAPSPDAFRSTPFIVPSSPTEQEGRQDKPMDTSVLSEEGGEPFQKKLQSGEPVELENPPLLPESTVSPQASTPISQSTPVFPPGSLPIPSQPQFSHDIFIPSPSLEEQSNDGKKDGDMHSSSLTVECSKTSEIEPKNSPEDLGLSLTGDSCKLMLSTSEYSQSPKMESLSSHRIDEDGENTQIEDTEPMSPVLNSKFVPAENDSILMNPAQDGEVQLSQNDDKTKGDDTDTRDDISILATGCKGREETVAEDVCIDLTCDSGSQAVPSPATRSEALSSVLDQEEAMEIKEHHPEEGSSGSEVEEIPETPCESQGEELKEENMESVPLHLSLTETQSQGLCLQKEMPKKECSEAMEVETSVISIDSPQKLAILDQELEHKEQEAWEEATSEDSSVVIVDVKEPSPRVDVSCEPLEGVEKCSDSQSWEDIAPEIEPCAENRLDTKEEKSVEYEGDLKSGTAETEPVEQDSSQPSLPLVRADDPLRLDQELQQPQTQEKTSNSLTEDSKMANAKQLSSDAEAQKLGKPSAHASQSFCESSSETPFHFTLPKEGDIIPPLTGATPPLIGHLKLEPKRHSTPIGISNYPESTIATSDVMSESMVETHDPILGSGKGDSGAAPDVDDKLCLRMKLVSPETEASEESLQFNLEKPATGERKNGSTAVAESVASPQKTMSVLSCICEARQENEARSEDPPTTPIRGNLLHFPSSQGEEEKEKLEGDHTIRQSQQPMKPISPVKDPVSPASQKMVIQGPSSPQGEAMVTDVLEDQKEGRSTNKENPSKALIERPSQNNIGIQTMECSLRVPETVSAATQTIKNVCEQGTSTVDQNFGKQDATVQTERGSGEKPVSAPGDDTESLHSQGEEEFDMPQPPHGHVLHRHMRTIREVRTLVTRVITDVYYVDGTEVERKVTEETEEPIVECQECETEVSPSQTGGSSGDLGDISSFSSKASSLHRTSSGTSLSAMHSSGSSGKGAGPLRGKTSGTEPADFALPSSRGGPGKLSPRKGVSQTGTPVCEEDGDAGLGIRQGGKAPVTPRGRGRRGRPPSRTTGTRETAVPGPLGIEDISPNLSPDDKSFSRVVPRVPDSTRRTDVGAGALRRSDSPEIPFQAAAGPSDGLDASSPGNSFVGLRVVAKWSSNGYFYSGKITRDVGAGKYKLLFDDGYECDVLGKDILLCDPIPLDTEVTALSEDEYFSAGVVKGHRKESGELYYSIEKEGQRKWYKRMAVILSLEQGNRLREQYGLGPYEAVTPLTKAADISLDNLVEGKRKRRSNVSSPATPTASSSSSTTPTRKITESPRASMGVLSGKRKLITSEEERSPAKRGRKSATVKPGAVGAGEFVSPCESGDNTGEPSALEEQRGPLPLNKTLFLGYAFLLTMATTSDKLASRSKLPDGPTGSSEEEEEFLEIPPFNKQYTESQLRAGAGYILEDFNEAQCNTAYQCLLIADQHCRTRKYFLCLASGIPCVSHVWVHDSCHANQLQNYRNYLLPAGYSLEEQRILDWQPRENPFQNLKVLLVSDQQQNFLELWSEILMTGGAASVKQHHSSAHNKDIALGVFDVVVTDPSCPASVLKCAEALQLPVVSQEWVIQCLIVGERIGFKQHPKYKHDYVSH

Variants of: B1
Assay: Number and brightness (NB) analysis of fluorescence fluctuation spectroscopy in live DIvA cells; live DIvA cell nuclei, transient transfection, N = 10 cells, two biological replicates; value is the box median; parent: 0.22; read off a plot

Variant	screen value
chain 1 Y1258A, chain 1 Y1259A	~0.06 fraction (pixels)

Variants of: B1
Assay: Number and brightness (NB) analysis of fluorescence fluctuation spectroscopy in live DIvA cells; single representative cell ROI; value is the top of the teal (monomer) segment of the stacked bar, the rest of the bar being dimer (green); parent: 0.79; read off a plot

Variant	screen value
chain 1 Y1258A, chain 1 Y1259A	~0.96 fraction (pixels)
